# Read-outs that look alike come from different tables or passages of the source.
# What was measured:
# [1] = target: A/Taiwan/2/2013(H6N1) hemagglutinin ectodomain, trypsin-cleaved into HA1 and HA2 (influenza A virus A/Taiwan/2/2013(H6N1)); assay: crystal structure
# [2] = target: A/chicken/Guangdong/S1311/2010(H6N6) hemagglutinin ectodomain, trypsin-cleaved into HA1 and HA2 (influenza A virus A/chicken/Guangdong/S1311/2010(H6N6)); assay: crystal structure
# [3] = target: GD H6 HA (Influenza A virus (A/chicken/Guangdong/S1311/2010(H6N6)), UniProt A0A067YZV9); details: 2 h, pH 8.0, receptor-binding site
molecule,measurement,setting,value
"A/Taiwan/2/2013(H6N1) hemagglutinin ectodomain, trypsin-cleaved into HA1 and HA2 (domain or fragment)",stoichiometry N,[1],3
"A/chicken/Guangdong/S1311/2010(H6N6) hemagglutinin ectodomain, trypsin-cleaved into HA1 and HA2 (domain or fragment)",stoichiometry N,[2],3
CC(=O)N[C@H]1[C@H](O[C@H]2[C@@H](O)[C@@H](CO)O[C@@H](O[C@H]3[C@H](O)[C@@H](O)C(O)O[C@@H]3CO)[C@@H]2O)O[C@H](CO)[C@@H](O[C@@H]2O[C@H](CO[C@]3(C(=O)O)C[C@H](O)[C@@H](NC(C)=O)[C@H]([C@H](O)[C@H](O)CO)O3)[C@H](O)[C@H](O)[C@H]2O)[C@@H]1O (stereo partly shown) [LSTc],X-ray crystal structure of complex,"[3]; crystal soaked with 5 mM LSTc, first two sugars visible",only the first two sugar rings are clearly visible in the complex structure of GD H6 HA-LSTc
CC(=O)N[C@H]1[C@H](O[C@H]2[C@@H](O)[C@@H](CO)O[C@@H](O[C@H]3[C@H](O)[C@@H](O)C(O)O[C@@H]3CO)[C@@H]2O)O[C@H](CO)[C@@H](O)[C@@H]1O[C@@H]1O[C@H](CO)[C@H](O)[C@H](O[C@]2(C(=O)O)C[C@H](O)[C@@H](NC(C)=O)[C@H]([C@H](O)[C@H](O)CO)O2)[C@H]1O (stereo partly shown) [LSTa],X-ray crystal structure of complex,"[3]; crystal soaked with 5 mM LSTa, first three sugars visible",Gal-2 and GlcNAc-3 of the LSTa are clearly visualized in both GD and TW H6 HA

# Source: paper PMC4520562 (PLoS ONE, 2015)
